In patent publication US20220389118A1 (Chugai, published 2022):
Residue numbers refer to the chain shown, from its start. In names and notes the source's numbering stands. One block for each binder: values may come before it.

How the values were obtained:
[1] = biological target: T1, human FcγRIIa type R extracellular domain with C-terminal His tag (human, UniProt P12318 34-217); experiment: SPR (Biacore), antibody captured, FcγR as analyte
T1 construct: extracellular domain; also called FcγRIIaR; FcgRIIaR
T1 sequence (looked up): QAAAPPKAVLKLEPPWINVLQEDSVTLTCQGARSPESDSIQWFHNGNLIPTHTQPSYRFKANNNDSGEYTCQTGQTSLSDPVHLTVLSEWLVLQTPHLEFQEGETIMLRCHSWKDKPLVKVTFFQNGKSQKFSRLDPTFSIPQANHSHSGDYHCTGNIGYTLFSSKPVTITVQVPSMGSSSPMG

[2] = biological target: T2, human FcγRIIb extracellular domain with C-terminal His tag (human, UniProt P31994 43-217); experiment: SPR (Biacore), antibody captured, FcγR as analyte
T2 construct: extracellular domain; also called FcgRIIb
T2 sequence (looked up): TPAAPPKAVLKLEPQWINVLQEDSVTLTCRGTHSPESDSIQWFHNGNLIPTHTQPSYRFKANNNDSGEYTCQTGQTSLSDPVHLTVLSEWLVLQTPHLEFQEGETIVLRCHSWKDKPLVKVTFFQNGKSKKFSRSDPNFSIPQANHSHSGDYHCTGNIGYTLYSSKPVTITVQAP

[3] = biological target: T3, human FcγRIIa type R extracellular domain with C-terminal His tag (human, UniProt P12318 34-217); experiment: SPR, Ref. Ex. 25
T3 construct: extracellular domain; also called FcγRIIaR; FcγRIIa R
T3 sequence (looked up): T1 sequence (looked up)

[4] = biological target: T4, human FcγRIIIa type V extracellular domain with C-terminal His tag (human, UniProt P08637 17-208); experiment: SPR, Ref. Ex. 25
T4 construct: extracellular domain; also called FcγRIIIaV; FcγRIIIa V type

[5] = biological target: T5, human FcγRIa extracellular domain with C-terminal His tag (human, UniProt P12314 16-292); experiment: SPR (Biacore), antibody captured, FcγR analyte
T5 construct: not shown: His tag at the C terminus

[6] = biological target: T6, human FcγRIIa type R (allotype R131) extracellular domain with C-terminal His tag (human, UniProt P12318 34-217); experiment: SPR (Biacore), antibody captured, FcγR analyte
T6 construct: extracellular domain; also called FcγRIIaR; FcγRIIa R type; not shown: His tag at the C terminus
T6 sequence (looked up): T1 sequence (looked up)

[7] = biological target: T7, human FcγRIIIa type V (allotype V158) extracellular domain with C-terminal His tag (human, UniProt P08637 17-208); experiment: SPR (Biacore), antibody captured, FcγR analyte
T7 construct: extracellular domain; also called FcγRIIIaV; FcγRIIIa V type; not shown: His tag at the C terminus

[8] = biological target: T8, human FcγRIIb extracellular domain with C-terminal His tag (human, UniProt P31994 43-217); experiment: SPR (Biacore), antibody captured, FcγR analyte
T8 construct: extracellular domain; not shown: His tag at the C terminus
T8 sequence (looked up): T2 sequence (looked up)

T5 sequence (P12314 16-292): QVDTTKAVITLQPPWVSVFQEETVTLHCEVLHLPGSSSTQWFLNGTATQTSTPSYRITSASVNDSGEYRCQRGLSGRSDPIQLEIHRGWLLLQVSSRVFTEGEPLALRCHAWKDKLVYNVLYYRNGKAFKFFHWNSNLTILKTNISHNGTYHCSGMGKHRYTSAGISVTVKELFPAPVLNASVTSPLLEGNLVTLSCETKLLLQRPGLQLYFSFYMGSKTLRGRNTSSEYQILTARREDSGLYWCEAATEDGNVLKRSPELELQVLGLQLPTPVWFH
T4 sequence (P08637 17-208 F176V): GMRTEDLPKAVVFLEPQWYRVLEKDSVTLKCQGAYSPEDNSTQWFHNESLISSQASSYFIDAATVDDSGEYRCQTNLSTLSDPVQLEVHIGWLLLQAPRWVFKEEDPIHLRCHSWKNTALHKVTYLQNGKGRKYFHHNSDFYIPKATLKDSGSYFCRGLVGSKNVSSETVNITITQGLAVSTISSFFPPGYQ
T7 sequence (P08637 17-208 F176V): as above

Kd [1]: 15 µM | KD(IIb) of parent polypeptide/KD(IIb) of altered polypeptide [2]: 2.8 fold vs IL6R-B3/IL6R-L
B2: IL6R-BP116/IL6R-L (antibody, human IgG1, kappa)
heavy: QVQLQESGPGLVKPSETLSLTCAVSGHSISHDHAWSWVRQPPGEGLEWIGFISYSGITNYNPSLQGRVTISRDNSKNTLYLQMNSLRAEDTAVYYCARSLARTTAMDYWGEGTLVTVSSASTKGPSVFPLAPSSKSTSGGTAALGCLVKDYFPEPVTVSWNSGALTSGVHTFPAVLQSSGLYSLSSVVTVPSSSLGTQTYICNVNHKPSNTKVDKKVEPKSCDKTHTCPPCPAPELLGGDSVFLFPPKPKDTLMISRTPEVTCVVVDVSHEDPEVKFNWYVDGVEVHNAKTKPREEQYNSTYRVVSVLTVLHQDWLNGKEYKCKVSNTALPAPIEKTISKAKGQPREPQVYTLPPSRDELTKNQVSLTCLVKGFYPSDIAVEWESNGQPENNYKTTPPVLDSDGSFFLYSKLTVDKSRWQQGNVFSCSVMHEALHNHYTQESLSLSP
light: not shown
notes: IgG1 type

Kd [3]: 7.9 µM | Kd [4]: 42 µM
B3: IL6R-PD095/IL6R-L (antibody, human IgG1, kappa)
heavy: B2 heavy with G239Y, M254Y, T328K, N436Y, E441K
light: not shown
notes: also called P238D/G237Y; G237Y/P238D; copies: 2 + 2

Kd [3]: 38 µM | Kd [4]: 41 µM
B5: IL6R-PD081/IL6R-L (antibody, human IgG1, kappa)
heavy: B2 heavy with G239E, M254Y, T328K, N436Y, E441K
light: not shown
notes: also called P238D/G237E; G237E/P238D; copies: 2 + 2

Kd [5]: 0.18 µM | Kd [6]: 0.99 µM | Kd [7]: 72 µM
B6: IL6R-BP203/IL6R-L (antibody, human IgG1, kappa)
heavy: B2 heavy with G239D, P273G, T328K, A332R
light: not shown
notes: copies: 2 + 2

Kd [1]: 16 µM | KD(IIb) of parent polypeptide/KD(IIb) of altered polypeptide [2]: 3.5 fold vs IL6R-B3/IL6R-L
B7: IL6R-BP911/IL6R-L (antibody, human IgG1, kappa)
heavy: B2 heavy with T328K, A332K
light: not shown
notes: IgG1 type

Kd [1]: 15 µM | KD(IIb) of parent polypeptide/KD(IIb) of altered polypeptide [2]: 2.7 fold vs IL6R-B3/IL6R-L
B11: IL6R-BP118/IL6R-L (antibody, human IgG1, kappa)
heavy: B2 heavy with T328S
light: not shown
notes: IgG1 type

Kd [3]: 14 µM | Kd [4]: 43 µM
B14: IL6R-PD082/IL6R-L (antibody, human IgG1, kappa)
heavy: B2 heavy with G239F, M254Y, T328K, N436Y, E441K
light: not shown
notes: also called P238D/G237F; G237F/P238D; copies: 2 + 2

Kd [8]: 0.02 µM
B15: IL6R-BP542/IL6R-L (antibody, human IgG1, kappa)
heavy: B2 heavy with E235D, G239D, H270D, P273G, Y298F, T328K, A332R
light: not shown
notes: Y296F introduced into IL6R-BP230 (takes the place of Y296D); copies: 2 + 2

Kd [1]: 12 µM | KD(IIb) of parent polypeptide/KD(IIb) of altered polypeptide [2]: 3.3 fold vs IL6R-B3/IL6R-L
B16: IL6R-BP107/IL6R-L (antibody, human IgG1, kappa)
heavy: B2 heavy with H270E, T328K
light: not shown
notes: IgG1 type

Kd [5]: 0.042 µM
B18: IL6R-BP189/IL6R-L (antibody, human IgG1, kappa)
heavy: B2 heavy with G239D, H270D, P273G, T328A, A332K
light: not shown
notes: copies: 2 + 2

Continued, binder first:

B1: IL6R-BP126/IL6R-L (antibody, human IgG1, kappa)
heavy: B2 heavy with T328L
light: not shown
notes: IgG1 type
Kd [1]: 11 µM | KD(IIb) of parent polypeptide/KD(IIb) of altered polypeptide [2]: 2.2 fold vs IL6R-B3/IL6R-L

B4: IL6R-BP192/IL6R-L (antibody, human IgG1, kappa)
heavy: B2 heavy with E235D, H270D, P273G, Y298D, T328K, A332K
light: not shown
notes: copies: 2 + 2
Kd [5]: 0.0066 µM | Kd [6]: 2.6 µM

B8: IL6R-PD094/IL6R-L (antibody, human IgG1, kappa)
heavy: B2 heavy with G239W, M254Y, T328K, N436Y, E441K
light: not shown
notes: also called P238D/G237W; G237W/P238D; copies: 2 + 2
Kd [3]: 7.2 µM | Kd [4]: 38 µM

B9: IL6R-BP191/IL6R-L (antibody, human IgG1, kappa)
heavy: B2 heavy with E235D, H270D, P273G, T328A, A332K
light: not shown
notes: copies: 2 + 2
Kd [5]: 0.004 µM | Kd [6]: 3 µM

B10: IL6R-BP120/IL6R-L (antibody, human IgG1, kappa)
heavy: B2 heavy with T328E
light: not shown
notes: IgG1 type
Kd [1]: 9.6 µM | KD(IIb) of parent polypeptide/KD(IIb) of altered polypeptide [2]: 3 fold vs IL6R-B3/IL6R-L | Kd [2]: 1 µM

B12: IL6R-BP117/IL6R-L (antibody, human IgG1, kappa)
heavy: B2 heavy with T328D
light: not shown
notes: IgG1 type
Kd [1]: 9.2 µM | KD(IIb) of parent polypeptide/KD(IIb) of altered polypeptide [2]: 3.9 fold vs IL6R-B3/IL6R-L | Kd [2]: 0.8 µM

B13: IL6R-PD086/IL6R-L (antibody, human IgG1, kappa)
heavy: B2 heavy with G239L, M254Y, T328K, N436Y, E441K
light: not shown
notes: also called P238D/G237L; G237L/P238D; copies: 2 + 2
Kd [4]: 41 µM

B17: IL6R-PD043/IL6R-L (antibody, human IgG1, kappa)
heavy: B2 heavy with L236Y, M254Y, T328K, N436Y, E441K
light: not shown
notes: also called P238D/L234Y; L234Y/P238D; copies: 2 + 2
Kd [3]: 26 µM | Kd [4]: 45 µM
